Here are results for 1 sequence from PMC4175327.

The series deals with human beta2-microglobulin (hβ2m), monomer (human) (UniProt P61769). As to the kind of experiment: SPR. To be noted: 2'-fluoro C and U; 50 mM MES, 120 mM NaCl, pH 6.2; fluorescence and NMR at 25 °C (NMR plus 0.02% azide, 0.1 mM EDTA, 10% D2O); SPR temperature not stated.
human beta2-microglobulin (hβ2m), monomer (human), sequence (P61769 21-119): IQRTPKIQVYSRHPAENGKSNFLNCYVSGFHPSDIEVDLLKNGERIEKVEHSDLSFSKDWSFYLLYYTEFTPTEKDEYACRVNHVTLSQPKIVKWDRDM

As a reminder, the Kd is a measure of binding affinity in units of concentration. For “GGGAAUGGAUCCACAUCUACGAAUUCUGAGCUACUCCCUUUUGGGCCCGGCUAUGAUUCACUGCAGACUUGACGAAGCUU [2'F B6 (full-length aptamer, 110 nt)]”, the dissociation constant (Kd) is 500 nM.
